Patent US20240344028A1, “Serum-free media for producing adipocytes for animal consumption” (Mosa Meat B.V., priority 2021, published 2024)

Test system: Adipogenic progenitor cells
Experiment: 2D adipogenic differentiation with DMAD components removed or at changed concentration
Assay type: cell-based, bovine
Conditions: single component removed from DMAD
Protocol: At 90% confluence, proliferated MSCs were trypsinized and seeded in a 96-well collagen coated cell culture plate at 30,000 cells/cm^2 in SF-PM. After 24 hours, adipogenesis was induced by changing SF-PM to DMAD (the serum-free differentiation medium as depicted in Example 1), which was maintained on the cells for a period of 12 days with media changes every 3-4 days. As a control differentiation medium (ctrl), DMEM/F12 with 3% FBS was supplemented with 4 conventional adipogenic inducers (IBMX (Sigma Aldrich-15879; 0.5 mM), dexamethasone (Sigma Aldrich-D4902; 10 μM), rosiglitazone (Sigma Aldrich-R2408; 5 μM) and insulin (Peprotech-10-365; 10 μM)). All 4 inducers were used for the first 3 days of culture and only insulin and rosiglitazone were used for the remaining 9 days.
Cells were fixed on days 6 and 12 with 4% PFA for 20 minutes at room temperature and washed twice with PBS. Cells were then stained with Hoechst (ThermoFisher 493/503, 1:2000) and BODIPY (Sigma Aldrich 345880, 1:1000) in PBS for 30 minutes. Adipogenic differentiation was quantified using the ImageXPress Pico High Content Analyser (HCA; Molecular devices). The parameters measured were total area of lipid, lipid droplet average area and percentage of positive cells. […]

B1: BMP4: Recombinant Human BMP-4 (E. coli derived), 120-05ET from Peprotech (protein, UniProt P12644 293-408, looked up)
Bone morphogenetic protein 4: SPKHHSQRARKKNKNCRRHSLYVDFSDVGWNDWIVAPPGYQAFYCHGDCPFPLADHLNSTNHAIVQTLVNSVNSSIPKACCVPTELSAISMLYLDEYDKVVLKNYQEMVVEGCGCR
For B1, the “effect of removing the component from DMAD on percentage of positive cells and total lipid area” value was “significantly decreased differentiation”.
